From patent publication US20030082135A1, “Pathway of RANTES-mediated chemokine synthesis in astrocytes and methods of use therefor” (priority 2001, published 2003)
Each block holds one molecule with its values, some of them ahead of it.

What was measured:
[1] = system: MEK, ERK1/2, p90RSK, p38, SAPK/JNK phosphorylation in astrocytes; assay: Western blotting of phosphorylated MAP kinase pathway proteins in astrocyte lysates; format: cell-based, mouse
Procedure: SDS-PAGE and Western blotting. Astrocytes were treated for the indicated time with media or 100 ng/ml RANTES, eotaxin, or other materials as indicated. Cells (3×10^5 in Examples 1-3, or 2×10^4 in later Examples) were resuspended in 100 μl buffer (50 mM HEPES, pH 7.5, 150 mM NaCl, 2 mM EDTA, 2 mM EGTA, 1% Triton X-100, 50 mM Sodium fluoride, 5 mM Sodium pyrophosphate, 50 mM Sodium β-glycerophosphate, 1 mM Sodium Ortho-vanadate, 1 mM DTT, 1 mM PMSF, 10 μg/ml Leupeptin, and 10 μg/ml Aprotinin). Protein concentration of the whole cell extract was determined by BCA protein assay kit (Pierce, Rockford, Ill.). Samples (10 μg) were loaded and separated on a 10% SDS-polyacrylamide gel. After transfer to Hybond ECL nitrocellulose membrane (Amersham Pharmacia Biotech Inc, Piscataway, N.J.) or Zeta-probe blotting membranes (Bio-Rad, Richmond Calif.) blots were blocked overnight with 5% BSA at 4° C., and probed with the antibody indicated. Antibody against unphosphorylated or phosphorylated erk (Cell Signaling, Beverly, Mass.) was used at 1 μg/ml. Appropriate anti-immunoglobulin reagents were used to develop the blots by enhanced chemiluminescence (Amersham Pharmacia Biotech Inc, Piscataway, N.J.).
Little is known about the signaling mechanisms involved in astrocyte respones to chemokines. To examine components of the RANTES signal transduction pathway, phosphorylation of the MAP kinase kinase (MEK) and mitogen activated protein (MAP) kinases was examined. To minimize basal kinase activity, astrocytes were starved of serum for at least 3 h before treatment with chemokine. Whole cell lysates were separated by SDS-PAGE and examined by Western blot. Antibodies that specifically react with phosphorylated MEK or phosphorylated extracellular signal-related kinase (ERK) were used to detect the active kinases.

[2] = system: primary neonatal mouse astrocyte cultures; assay: RNase protection assay (RPA) for chemokine/cytokine transcripts in astrocyte cultures; format: cell-based
Procedure: Astrocyte isolation and culture. […] RNA isolation and RNase protection assay (RPA). […] RNase protection assays (RPA) for chemokine message were conducted with multi-probe templates according to the manufacture's protocol (RiboQuant assay kit, BD-PharMingen, San Diego, Calif.). Gels were scanned and radioactive bands quantitated using a phosphoimager (Molecular Dynamics, Sunnyvale, Calif.). Levels of uniformly expressed housekeeping genes large ribosomal subunit protein 32-3A (L32) or glyceraldehyde-3-phosphate dehydrogenase (GAPDH), were used for normalization. The value of each chemokine receptor band divided by the value of the indicated housekeeping gene band in the same sample yielded the relative intensity. Normalized receptor expression represents the ratio of the relative intensity following treatment with chemokine versus the relative intensity of medium alone. Treatment with pharmacological inhibitors. Astrocytes were washed and resuspended in serum-and insulin-free complete medium and starved overnight. Cells were treated at 37° C. for 1 h with 100 ng/ml Pertussis toxin (PTx) before addition of RANTES or IL-1. […] The cells were harvested after a 3 h incubation with RANTES; RNA was prepared and assayed by RPA.

[3] = system: PKA; assay: PKA activity assay on lysates of treated astrocytes; format: cell-based, mouse
Procedure: PKA activity assay. PKA activity was determined using a commercially available kit (Calbiochem, San Diego, Calif.) according to manufacturer's recommendations. Primary mouse astrocytes were grown in 6-well plates and then stimulated as described and lysed in 100 μl buffer (same buffer used for Western blotting) for 30 min. Five μl of the lysates were incubated with 20 μl PKA reaction mixture at 30° C. for 30 min. The reaction was terminated by adding 10 μl stop solution and ^32P radioactivity was counted.

[4] = system: astrocytes
[5] = system: astrocytes; assay: ELISA of KC, TNF-α and MCP-1 protein in astrocyte culture supernatants; format: cell-based, mouse; conditions: 48 h, 1.5 to 100 ng/ml tested
[6] = system: cultured mouse astrocytes; assay: RT-PCR for KC message in astrocytes; format: cell-based
[7] = system: CXCR4, CX3CR1, CCR1, CCR5 transcripts in astrocytes; assay: RPA for chemokine receptor transcripts in astrocytes; format: cell-based, mouse; conditions: average, pooled results of 3-4 experiments
Procedure: RNA isolation and RNase protection assay (RPA). RNA was prepared as in Luo, Y., et al. 1999. J Immunol 163:3985. RNase protection assays (RPA) for chemokine message were conducted with multi-probe templates according to the manufacture's protocol (RiboQuant assay kit, BD-PharMingen, San Diego, Calif.). Gels were scanned and radioactive bands quantitated using a phosphoimager (Molecular Dynamics, Sunnyvale, Calif.). Levels of uniformly expressed housekeeping genes large ribosomal subunit protein 32-3A (L32) or glyceraldehyde-3-phosphate dehydrogenase (GAPDH), were used for normalization. The value of each chemokine receptor band divided by the value of the indicated housekeeping gene band in the same sample yielded the relative intensity. Normalized receptor expression represents the ratio of the relative intensity following treatment with chemokine versus the relative intensity of medium alone.
Treatment with the RANTES-related chemokines RANTES or eotaxin, or with TNF-α also found to down-regulate expression of CX3CR1 transcripts. In addition, CXCR4 mRNA levels were decreased, while the levels of CCR1 transcripts were elevated. In contrast, little or no regulation of CCR5 was noted. The pooled results of 3-4 experiments indicate eotaxin caused an average 60% decrease in CXCR4 (P less than 0.01) and a 70% decrease in CX3CR1 mRNA (P less than 0.02) (FIG. 8.B). The effects of RANTES stimulation were similar with an average 70 and 90% reduction in CXCR4 and CX3CR1 transcripts, respectively (P less than 0.01).

Molecule: O=C1Nc2ccc(I)cc2/C1=C/c1cc(Br)c(O)c(Br)c1 [Raf-1 inhibitor, reference compound]
- effect on MEK and erk1/2 phosphorylation induced by RANTES [1]: blocked
- effect on RANTES-induced chemokine/cytokine gene expression ([2]; increasing doses, 1 h pretreatment, 100 ng/ml RANTES 3 h): blocked gene expression in a dose dependent fashion
- effect on PKA activity [3]: neither U0126 nor Raf-1 inhibitor decreased PKA activity
- effect on astrocyte viability or expression of the housekeeping genes L32 and GAPDH [4]: failed to affect

- production of chemokine transcripts by astrocytes from mice deficient for CCR1, CCR2, CCR3, or CCR5 ([2]; 100 ng/ml): specifically responded
- expression of TNF-α, RANTES, KC, MIP-1α, MIP-2, and MCP-1 transcripts ([2]; BALB/cJ neonatal astrocytes, chemokine for 6 h): up-regulated
- decrease in CX3CR1 mRNA [7]: 70%
- decrease in CXCR4 mRNA [7]: 60%
B1: eotaxin: recombinant mouse chemokine, RANTES-related, purchased from R&D System (protein, UniProt P48298 24-97, looked up)
Eotaxin: HPGSIPTSCCFIMTSKKIPNTLLKSYKRITNNRCTLKAIVFKTRLGKEICADPKKKWVQDATKHLDQKLQTPKP
- ability to induce chemokine transcripts after boiling ([2]; boiled for 30 min before incubation with astrocytes): completely destroyed
- concentration inducing KC protein [5]: ≥ 25 ng/mL
- synthesis of KC message [6]: induce synthesis of KC message
